Patent US20130090457A1 (Janssen / Centocor, published 2013)

Assays:
cynomolgus TLR3 on cells = cynomolgus TLR3 on cells (cynomolgus, UniProt A0A2K5WT39 32-912); assay: cell-based or functional assay
[1] = target: full-length murine TLR3 on cells (mouse, UniProt Q99MB1 26-905); assay: cell-based or functional assay

Binder | IC50 in the cyno ISRE reporter assay (cynomolgus TLR3 on cells) [µg/mL] | IC50 in the cyno NF-κB reporter assay (cynomolgus TLR3 on cells) [µg/mL] | IC50 in the ISRE reporter gene assay, murine TLR3-transfected HEK293T, poly(I:C) [1] [µg/mL]
mAb 15EVQ (antibody, human IgG4 S228P, kappa, F234A L235A) heavy: not shown light: DIQMTQSPSSLSASVGDRVTITCRASQSIGLYLAWYQQKPGKAPKLLIYAASSLQSGVPSRFSGSGSGTDFTLTISSLQPEDFATYYCQQGNTLSYTFGQGTKVEIKRTVAAPSVFIFPPSDEQLKSGTASVVCLLNNFYPREAKVQWKVDNALQSGNSQESVTEQDSKDSTYSLSSTLTLSKADYEKHKVYACEVTHQGLSSPVTKSFNRGEC | 1.74 | 4.18 | 
mAb 15 (antibody, human IgG4 S228P, kappa) heavy: not shown light: DIQMTQSPSSLSASVGDRVTITCRASQSIGLYLAWYQQKPGKAPKLLIYAASSLQSGVPSRFSGSGSGTDFTLTISSLQPEDFATYYCQQGNTLSYTFGQGTKVEIKRTVAAPSVFIFPPSDEQLKSGTASVVCLLNNFYPREAKVQWKVDNALQSGNSQESVTEQDSKDSTYSLSSTLTLSKADYEKHKVYACEVTHQGLSSPVTKSFNRGEC |  |  | 22
mAb 5429 (antibody, mouse IgG1, kappa, V domains shown) VH: EVQLVASGGGLVKPGASLKLSCVASGFTFSDYWMAWVRQTPGKPMEYIGDIKSDGSKVNYAPSLKNRFTISRDNARTTLYLQMSNVRSEDTATYYCNRDIGPDWYFDFWGPGTMVTVSS VL: DIQMTQSPTSLSASLGETVTIECRASEDIYNGLAWYQQKPGKSPQLLIYDSNSLHTGVPSRFSGRGSGTQYSLRINSLQSEDVASYFCQQYYDYPLTFGSGTKLEIKR |  |  | 0.5
mAb c1811 (antibody, mouse IgG1, kappa, V domains shown) VH: EVQLVASGGGLVKPGASLKLSCVASGFTFSDYWMAWVRQTPGKPMEYIGDIKSDGSKVNYAPSLKNRFTISRDNARTTLYLQMSNVRSEDTATYYCNRDIGPDWYFDFWGPGTMVTVSS VL: DIQMTQSPTSLSASLGETVTIECRASEDIYNGLAWYQQKPGKSPQLLIYDSNSLHTGVPSRFSGRGSGTQYSLRINSLQSEDVASYFCQQYYDYPLTFGSGTKLEIKR |  |  | 0.7
